Target: T1, PPC peptide, soluble recombinant 18-mer ADGACGYGRFSPPCGAAG
T1 chain: ADGACGYGRFSPPCGAAG

B1: aminophenylmercuric acetate (APMA)-activated MMP-2 (protein)
chain: YNFFPRKPKWDKNQITYRIIGYTPDLDPETVDDAFARAFQVWSDVTPLRFSRIHDGEADIMINFGRWEHGDGYPFDGKDGLLAHAFAPGTGVGGDSHFDDDELWTLGEGQVVRVKYGNADGEYCKFPFLFNGKEYNSCTDTGRSDGFLWCSTTYNFEKDGKYGFCPHEALFTMGGNAEGQPCKFPFRFQGTSYDSCTTEGRTDGYRWCGTTEDYDRDKKYGFCPETAMSTVGGNSEGAPCVFPFTFLGNKYESCTSAGRSDGKMWCATTANYDDDRKWGFCPDQGYSLFLVAAHEFGHAMGLEHSQDPGALMAPIYTYTKNFRLSQDDIKGIQELYGASPDIDLGTGPTPTLGPVTPEICKQDIVFDGIAQIRGEIFFFKDRFIWRTVTPRDKPMGPLLVATFWPELPEKIDAVYEAPQEEKAVFFAGNEYWIYSASTLERGYPKPLTSLGLPPDVQRVDAAFNWSKNKKTYIFAGDKFWRYNEVKKKMDPGFPKLIADAWNAIPDNLDAVVDLQGGGHSYFFKGAYYLKLENQSLKSVKFGSIKSDWLGC
  gelatin degradation assay (enzymatic activity, biotinylated gelatin substrate): PPC inhibited both MMP-9 and MMP-2 activity

Reference: patent US20070207967
